The target in the assay is gp70 env protein of amphotropic MLV (4070A envelope), on purified viral particles (amphotropic murine leukemia virus (4070A envelope)). The experiment in a line: ELISA on plate-bound MLV, dilution factor 156250, Exp121-Ana Plate 2.
Sequence of gp70 env protein of amphotropic MLV (4070A envelope), on purified viral particles (amphotropic murine leukemia virus (4070A envelope)) (P21995 whole entry): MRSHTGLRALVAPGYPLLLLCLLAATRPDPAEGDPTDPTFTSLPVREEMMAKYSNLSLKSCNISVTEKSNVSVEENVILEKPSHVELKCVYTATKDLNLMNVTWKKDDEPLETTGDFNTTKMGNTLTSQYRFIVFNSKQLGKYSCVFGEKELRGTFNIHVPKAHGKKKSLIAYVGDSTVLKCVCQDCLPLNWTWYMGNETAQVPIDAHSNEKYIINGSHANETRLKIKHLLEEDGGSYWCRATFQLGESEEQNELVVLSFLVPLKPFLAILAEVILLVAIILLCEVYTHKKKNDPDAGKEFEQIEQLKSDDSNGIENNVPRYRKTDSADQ

On to “83A25 monoclonal antibody (rat IgG2a, anti-gp70)”, for which the Mean OD came to 0.159 OD.

For the origin of these results see US20140178854A1.
